Reference: IntAct's records for PubMed 23297211

B1: Small glutamine-rich tetratricopeptide repeat-containing protein 2 (Saccharomyces cerevisiae), Q12118 (parent)
chain: MSASKEEIAALIVNYFSSIVEKKEISEDGADSLNVAMDCISEAFGFEREAVSGILGKSEFKGQHLADILNSASRVPESNKKDDAENVEINIPEDDAETKAKAEDLKMQGNKAMANKDYELAINKYTEAIKVLPTNAIYYANRAAAHSSLKEYDQAVKDAESAISIDPSYFRGYSRLGFAKYAQGKPEEALEAYKKVLDIEGDNATEAMKRDYESAKKKVEQSLNLEKTVPEQSRDADVDASQGASAGGLPDLGSLLGGGLGGLMNNPQLMQAAQKMMSNPGAMQNIQKMMQDPSIRQMAEGFASGGGTPNLSDLMNNPALRNMAGNLFGGAGAQSTDETPDNENKQ
partner: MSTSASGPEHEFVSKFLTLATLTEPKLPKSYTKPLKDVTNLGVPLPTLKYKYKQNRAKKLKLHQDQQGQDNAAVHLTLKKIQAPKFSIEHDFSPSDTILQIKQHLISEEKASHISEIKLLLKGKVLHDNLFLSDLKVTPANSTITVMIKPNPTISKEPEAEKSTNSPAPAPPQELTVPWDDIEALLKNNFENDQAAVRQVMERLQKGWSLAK

Variants of: B1
Details: with mdy2_yeast MDY2, Q12285

Q: E42R was tested. Which “effect of a mutation on the interaction” value did it give?
A: decreasing interaction strength

Q: How did the “effect of a mutation on the interaction” value turn out when V35A was run?
A: decreasing interaction strength

Q: With D38R as the variant, how does the “effect of a mutation on the interaction” value read?
A: disrupting interaction strength

Q: D31R was tested. Which “effect of a mutation on the interaction” value did it give?
A: decreasing interaction strength

Q: How did the “effect of a mutation on the interaction” value turn out when F16Y was run?
A: with no effect
